The results in this text go back to patent US20160002331A1.

What all share (assay): cell-based or functional assay
The target in experiment [1] is Notch1 receptor with L1594P mutation (ALL-SIL cells), P46531.
The target in experiment [2] is Notch1 receptor with L1594P/D1610V mutations (DND-41 cells), P46531.
Experiment [3] addresses Notch1 receptor with a 17 amino acid insertion at position 1740 (Jurkat cells), P46531.
In experiment [4] the target is Notch1 receptor with L1601P mutation (MOLT-4 cells), P46531.
Sequence of Notch1 receptor with L1601P mutation (MOLT-4 cells), P46531 (P46531 19-2555, stated change not applied): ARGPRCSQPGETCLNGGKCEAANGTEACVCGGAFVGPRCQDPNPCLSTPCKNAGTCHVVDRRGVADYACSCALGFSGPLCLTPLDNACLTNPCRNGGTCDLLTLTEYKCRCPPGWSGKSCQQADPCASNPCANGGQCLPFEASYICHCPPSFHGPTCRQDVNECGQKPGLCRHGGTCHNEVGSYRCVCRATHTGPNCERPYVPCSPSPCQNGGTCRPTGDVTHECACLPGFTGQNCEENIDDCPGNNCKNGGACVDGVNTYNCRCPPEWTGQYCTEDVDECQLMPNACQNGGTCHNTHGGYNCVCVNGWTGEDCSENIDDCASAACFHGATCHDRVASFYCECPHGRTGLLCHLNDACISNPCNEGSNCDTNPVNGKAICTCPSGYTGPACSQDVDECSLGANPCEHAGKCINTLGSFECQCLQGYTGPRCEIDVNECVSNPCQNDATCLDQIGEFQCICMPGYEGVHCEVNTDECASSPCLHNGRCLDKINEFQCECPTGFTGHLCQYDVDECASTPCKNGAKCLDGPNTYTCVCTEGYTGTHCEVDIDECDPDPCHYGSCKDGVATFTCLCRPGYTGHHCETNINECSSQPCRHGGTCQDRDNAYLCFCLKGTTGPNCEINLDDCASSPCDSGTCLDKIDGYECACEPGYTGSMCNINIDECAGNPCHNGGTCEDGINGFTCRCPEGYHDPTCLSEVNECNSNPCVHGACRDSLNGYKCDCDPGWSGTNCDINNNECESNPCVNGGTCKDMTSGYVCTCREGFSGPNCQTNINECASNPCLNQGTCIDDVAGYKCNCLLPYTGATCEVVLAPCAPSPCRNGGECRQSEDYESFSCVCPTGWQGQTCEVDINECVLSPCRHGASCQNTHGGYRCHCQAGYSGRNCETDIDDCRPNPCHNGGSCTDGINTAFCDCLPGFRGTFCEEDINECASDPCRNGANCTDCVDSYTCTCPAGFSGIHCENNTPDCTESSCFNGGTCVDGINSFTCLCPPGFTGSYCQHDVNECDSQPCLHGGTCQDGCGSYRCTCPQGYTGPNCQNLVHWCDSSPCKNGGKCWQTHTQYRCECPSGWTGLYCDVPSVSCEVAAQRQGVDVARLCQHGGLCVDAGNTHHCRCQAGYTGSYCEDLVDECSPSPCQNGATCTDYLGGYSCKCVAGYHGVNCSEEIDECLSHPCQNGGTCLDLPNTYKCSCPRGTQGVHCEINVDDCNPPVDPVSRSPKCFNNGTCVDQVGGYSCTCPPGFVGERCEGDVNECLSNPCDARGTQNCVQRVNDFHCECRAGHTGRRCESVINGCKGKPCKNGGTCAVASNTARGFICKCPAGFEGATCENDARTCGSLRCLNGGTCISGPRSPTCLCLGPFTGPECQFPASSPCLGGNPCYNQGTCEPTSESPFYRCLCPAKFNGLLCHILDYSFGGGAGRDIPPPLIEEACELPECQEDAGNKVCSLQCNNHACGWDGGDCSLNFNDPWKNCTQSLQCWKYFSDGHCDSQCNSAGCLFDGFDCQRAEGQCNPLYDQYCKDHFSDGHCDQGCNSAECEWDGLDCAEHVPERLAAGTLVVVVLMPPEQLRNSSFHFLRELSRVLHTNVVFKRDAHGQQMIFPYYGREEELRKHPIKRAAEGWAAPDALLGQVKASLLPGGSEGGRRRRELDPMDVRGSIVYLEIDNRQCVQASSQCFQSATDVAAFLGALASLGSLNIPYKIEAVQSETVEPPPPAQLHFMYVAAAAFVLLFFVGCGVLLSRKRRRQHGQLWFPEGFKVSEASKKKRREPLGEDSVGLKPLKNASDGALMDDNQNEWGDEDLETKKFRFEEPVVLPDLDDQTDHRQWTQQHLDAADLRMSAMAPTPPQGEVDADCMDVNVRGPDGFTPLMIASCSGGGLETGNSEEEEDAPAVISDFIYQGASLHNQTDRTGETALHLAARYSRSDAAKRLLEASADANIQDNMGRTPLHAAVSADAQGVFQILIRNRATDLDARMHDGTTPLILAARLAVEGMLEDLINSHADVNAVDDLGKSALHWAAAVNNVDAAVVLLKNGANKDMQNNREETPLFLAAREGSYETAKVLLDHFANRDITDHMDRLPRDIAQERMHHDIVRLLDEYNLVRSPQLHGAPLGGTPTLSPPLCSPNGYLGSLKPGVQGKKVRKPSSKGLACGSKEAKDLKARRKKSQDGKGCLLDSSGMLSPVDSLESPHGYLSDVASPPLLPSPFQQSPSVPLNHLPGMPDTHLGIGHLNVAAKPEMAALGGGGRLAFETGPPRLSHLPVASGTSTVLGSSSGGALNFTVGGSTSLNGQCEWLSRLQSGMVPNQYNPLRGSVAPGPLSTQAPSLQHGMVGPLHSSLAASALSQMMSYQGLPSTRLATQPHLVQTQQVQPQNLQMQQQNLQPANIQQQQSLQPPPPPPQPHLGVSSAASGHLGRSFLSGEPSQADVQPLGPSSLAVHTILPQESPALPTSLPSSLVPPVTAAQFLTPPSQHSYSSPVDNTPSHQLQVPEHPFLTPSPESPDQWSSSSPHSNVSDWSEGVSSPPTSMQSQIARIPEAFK

Sequence of Notch1 receptor with a 17 amino acid insertion at position 1740 (Jurkat cells), P46531 (P46531 19-2555): as the sequence (P46531 19-2555, stated change not applied) above
Sequence of Notch1 receptor with L1594P mutation (ALL-SIL cells), P46531 (P46531 19-2555, stated change not applied): as above
Sequence of Notch1 receptor with L1594P/D1610V mutations (DND-41 cells), P46531 (P46531 19-2555, stated change not applied): as above

B1: rat 351-mIgG1 (antibody, V domains shown)
VH: EVQLVESGGGLVQPGRSLKVSCLASGFTFSHYGMNWIRQAPGKGLDWVASISRSGSYIRYVDTVKGRFTVSRDIAKNTLYLQMTSLRSEDTALYYCAREGQFGDYFEYWGQGVMVTVSS
VL: DIMLTQSPATLSVTPGERISLSCRASQKISTNLHWYQQKPNESPRILIKYASQTISGIPSRFSGSGSGTDFTLHINTVEPEDFSVYYCQQTNSWPLTFGSGTKLEIK
For B1, in experiment [1], the Normalized Notch1^ICD level, ALL-SIL cells, 0.001 µg/ml antibody (relative to untreated) turned out to be 0.982; the Normalized Notch1^ICD level, ALL-SIL cells, 0.01 µg/ml antibody (relative to untreated) worked out at 0.712; the Normalized Notch1^ICD level, ALL-SIL cells, 0.1 µg/ml antibody (relative to untreated) stood at 0.08; the Normalized Notch1^ICD level, ALL-SIL cells, 1 µg/ml antibody (relative to untreated) amounted to 0.03. In experiment [1], the Normalized Notch1^ICD level, ALL-SIL cells, 10 µg/ml antibody (relative to untreated) was determined as 0.019. In experiment [2], the Normalized Notch1^ICD level, DND-41 cells, 0.001 µg/ml antibody (relative to untreated) is 1.02; the Normalized Notch1^ICD level, DND-41 cells, 0.01 µg/ml antibody (relative to untreated) was 0.988; the Normalized Notch1^ICD level, DND-41 cells, 0.1 µg/ml antibody (relative to untreated) was determined as 0.367; the Normalized Notch1^ICD level, DND-41 cells, 1 µg/ml antibody (relative to untreated) was determined as 0.322. The molecule further yielded a Normalized Notch1^ICD level, DND-41 cells, 10 µg/ml antibody (relative to untreated) in experiment [2] of 0.219. In experiment [3], this molecule gave a Normalized Notch1^ICD level, Jurkat cells, 0.001 µg/ml antibody (relative to untreated) of 1.53; a Normalized Notch1^ICD level, Jurkat cells, 0.01 µg/ml antibody (relative to untreated) of 1.44; a Normalized Notch1^ICD level, Jurkat cells, 0.1 µg/ml antibody (relative to untreated) of 1.41; a Normalized Notch1^ICD level, Jurkat cells, 1 µg/ml antibody (relative to untreated) of 1.08. This molecule also came in with a Normalized Notch1^ICD level, Jurkat cells, 10 µg/ml antibody (relative to untreated) in experiment [3] of 1.2. In addition, in experiment [4], the Normalized Notch1^ICD level, MOLT-4 cells, 0.01 µg/ml antibody (relative to untreated) is 1.52; the Normalized Notch1^ICD level, MOLT-4 cells, 0.1 µg/ml antibody (relative to untreated) amounted to 0.751; the Normalized Notch1^ICD level, MOLT-4 cells, 1 µg/ml antibody (relative to untreated) was found to be 0.284; the Normalized Notch1^ICD level, MOLT-4 cells, 10 µg/ml antibody (relative to untreated) came out at 0.082.
